Target: T1, preassembled pyrene-actin filaments (Gallus gallus, UniProt P68139)
T1 construct: Extract chicken breast acetone powder (as prepared above) in Buffer A; from tissue; host or cells: chicken breast muscle (actin); E. coli (cofilin, made in house)
Experiment: pyrene actin assay (fluorescence of preassembled pyrene-actin filaments)
Type: biochemical, chicken
Settings: addition of stoichiometric amounts of cofilin to preassembled pyrene-actin filaments; binding to actin polymer and enhancing depolymerization combined
Description: Assays for the interaction of A. fumigatus cofilin and any other cofilin with actin in 384-well plates using a fluorescence as the detection means have been developed. The assays employ pyrene-labeled actin (Pollard (1984) J Cell Biol 99:769-777).
Upon addition of cofilin to filamentous pyrene-actin, two well-characterized biochemical activities can be monitored. First, cofilin binds to the filaments and partially quenches the pyrene fluorescence. Second, it induces filament disassembly, further decreasing pyrene fluorescence. The decrease in fluorescence that results when cofilin is added to filamentous actin is monitored (FIG. 3). An inhibitor of the interaction of cofilin with pyrene-actin will result in an increase in fluorescence.
This very robust signal can be exploited to an assay for modulators of cofilin. Chicken skeletal actin was used because it can be purified in quantities needed for high throughput screening; it is 90% identical in amino acid sequence to fungal actin, and it can assemble into copolymers with fungal actin. Pyrene-labeled skeletal actin has been prepared and characterized as to its polymerization properties as well as for its interaction with fungal cofilin.

B1: A. fumigatus cofilin: protein of A. fumigatus capable of binding actin, amino acid sequence SEQ ID NO:2, expressed in E. coli (protein, listed as Aspergillus fumigatus)
chain: MALASGVSIADECITAFNDFRMSGNKANKTKFIIFKIADNKKEVVIDEVSQEEDYEVFRSRLEATKDSKGNPAPRYAVYDVEYDLGGGEGKRSKIVFISWVPSDTPTLWSMIYASTRENLKNALNIHTSIHADDKGDIEWKTVLAEASGGKAGK
In the case of B1, the “reduction in fluorescence intensity” value is reported as 3-5 fold.
